The results in this text go back to publication PMC6611741 (2019).

The assay concerns the target Bovine serum albumin (Bos taurus (Bovine), UniProt P02769). Briefly: EGOTFT (SiMoT), BSA-functionalized gate.

Sequence of Bovine serum albumin (P02769 25-607): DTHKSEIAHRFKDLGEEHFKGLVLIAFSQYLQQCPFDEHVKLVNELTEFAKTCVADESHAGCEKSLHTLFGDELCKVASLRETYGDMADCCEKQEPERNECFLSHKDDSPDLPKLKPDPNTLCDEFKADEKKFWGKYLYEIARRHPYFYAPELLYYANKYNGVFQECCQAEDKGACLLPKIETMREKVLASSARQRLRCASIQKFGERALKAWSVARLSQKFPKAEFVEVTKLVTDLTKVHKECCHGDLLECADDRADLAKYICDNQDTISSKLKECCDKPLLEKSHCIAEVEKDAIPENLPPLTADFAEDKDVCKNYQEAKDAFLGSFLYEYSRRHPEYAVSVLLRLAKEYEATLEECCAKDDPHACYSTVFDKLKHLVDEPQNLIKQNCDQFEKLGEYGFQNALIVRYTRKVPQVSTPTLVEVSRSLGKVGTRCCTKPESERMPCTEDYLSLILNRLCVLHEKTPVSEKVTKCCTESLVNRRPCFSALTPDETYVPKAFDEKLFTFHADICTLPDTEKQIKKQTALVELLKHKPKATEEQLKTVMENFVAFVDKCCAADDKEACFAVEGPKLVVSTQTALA

B1: Human C-reactive protein (protein)
chain: QTDMSRKAFVFPKESDTSYVSLKAPLTKPLKAFTVCLHFYTELSSTRGYSIFSYATKRQDNEILIFWSKDIGYSFTVGGSEILFEVPEVTVAPVHICTSWESASGIVEFWVDGKPRVRKSLKKGYTVGAEASIILGQEQDSFGGNFEGSQSLVGDIGNVNMWDFVLSPDEINTIYLGGPFSPNVLNWRALKYEVQGEVFTKPQLWP
For B1, the binding result is recorded as “no binding”.
